Measured values: the nanobody polyreactivity screen of Harvey et al. (2022)

Assay: yeast display, Sf9 membrane polyspecificity reagent, FACS + sequencing; frameworks hold sequencing errors
How it was run: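 Using colony PCR, genes from sorted yeast display clones were amplified, then sequenced on MiSeq at 2 × 250 and filtered by CDR length. The clones had been stained with 10% biotinylated, detergent-solubilized Sf9 membrane reagent for 1 hour at 4 °C and sorted by FACS into low and high (top ~1%) gates on anti-HA and streptavidin fluorescence. Polyreactivity labels come from the gate of origin.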

Sequence	polyreactivity (PSR sort gate)
QVQLVESGGGLVQAGGSLRLSCAASGSIFYVNGMGWSRQAPGKERELVARITLSGTSTYYADSVKGRFTISRDNAKNTVYLQMNSLKPEDTAVYYCAAPYFTYGQDDDDYWGQGTQVTVSS	low polyreactivity
QVQLVESGGGLVQAGGSLRLSCAASGRTFRYYAIGWYRQAPGKERELVATISKSGGSTYYADSVKGRFTISRDNAKNTVYLQMNSLKPEDTAVYYCAAVGPYRWYDYWGQGTQVTVSS	high polyreactivity
QVQIVESGGGLVQAGGSLRLSCAASGSTFTRYTMGWYRQAPGKERELVAAISGRGGSTYYADSVKGRFTISRDNAKNTVYLQMNSLKPEDTAVYYCNKVYWRRGSLEYWGQGTQVTVSS	high polyreactivity
QVQLVESGGGLDQAGGSLRLTCAASGRTFSRNAMGWYRQAPGKERELVAAISGSGGTTYYADSVKGRFTISRDNAKNTVYLQMKSLKPEDTAVYYCAADLRYAWVFWYEYWGLGTQVTVSS	low polyreactivity
QVQLVESGGGLVQAGGSLRLSCAASGSTFSGYAMGWYRQAPGKEMEFVATISISGGSTYYADSVKGRFTISRDNAKNTVYLQMNSLKPEDTAVYYCNADYYFSWGSIEDYWGQGTQVTVSS	low polyreactivity
QVQLVESGGGLVQAGGSLRLSCAASGRTFKRNAMGWYRQAPGKERELVASISWRGGSTYYADSVKGRFTISRDNAKNTVFLQMKSLKPEDTAVYYCAAQYPVWRRLYRTWLVAEVDYWGQGTQVTVSS	low polyreactivity
QVQLVESGGGLVQAGGSLRLSCAASGSIIRWNAMGWYRQAPGKERELVAAITGGGGNTYYSDSVKGRFTISRDNAKNTVYLQMNSLKPEDTAVYYCNVVYRNYRNDYWGQGTQVTVSS	high polyreactivity
QVQLVESGGGLVQAGGSLRLSCAASGRTFDDYTMGWYRQAPGKERELVAAITGGGSTNYADSVKGRFTISRDNAKNTVYLQMNSLKPEDTAVYYCNAEYSRSYRYDEGYWGQGTQVTVSS	low polyreactivity
QVQLVESGGGLVQAGGSLRLSCAASGGTFGAYAMGWYRPAPGKERELVAAISGSGARTYYADSVKGRFTISRDNAKNTVYLQMNSLKPEDTAVYYCAARSTGTRVGEYDYWGQGTQVTVSS	high polyreactivity
QVQLVESGGGLVQAGGSLRLSCAASGRTFVYNAMGWYRQAPGKERELVAAISFGGGNTYYADSVKGRFTISRDNAKNTVYLQMNSLKPEDTAVYYCAKAYIGYWGASWYYAYDYWGQGTQVTVSS	low polyreactivity
QVQLVESGGGLVQAGGSLRLSCAASGRTFWYYPMGGYRQEPGKERELVAAITRGTSTYADSVKGRFTISRDNAKTTVYLQMNSLKPEDTAVDYCAADTWGTRNSRYDYWGQGTQVTVSS	high polyreactivity
QVQLVESGGGLVQAGGSLRLSCAASGSIFLFYTMGWYRQATGKERELVAAISYSGGNTYYADSVKGRFTISRDNATNTVYLQMNSLKPEDTAVYYCNVRTQWARYDYWRQGTQVTVSS	high polyreactivity
QVQLVESGGGLVQAGGSLRLICAASGVIFLRYAMGWYRQAPGKERELVAAISSSGDITYYADSVKGRFTISRDNAKNTVYLQMYSLKPEDTAVYYCAATVGLWEYGYWGQGTQVTVSS	low polyreactivity
QVQLVESGGGLVQAGGSLRLSCAASGFTFTKYAMGWYIQATGKERELVAAISRSGSSTYYADSVKGRFTISRDNAKNTVYLQMNSLKPEDTAVYYCAADNGYGDYYYWGQGTQVTVSS	high polyreactivity
QVQLVESGGGLVQAGGSLRLSCAASGFTFYSYAMGWYRQAPGKERELVAAITKRGGSTSYADSVKGRFTISRDNAKNTVYLQMNSLKPEDTAVYYCNRRATKAQYGDEVDYWGQGTQVTVSS	high polyreactivity
QVQLVESGGGLVQAVGSLRLSCAASGLTFYSNAMGWYRQAPGKERELVATISQDGGRTYADSLKGRFTISRDNAKNTVYLQMNSLKPEDTAVYYCAKVRERINYDYWGQGTQVTVSS	low polyreactivity

Sequence	polyreactivity (PSR sort gate)
QVQLVESGGGLVQAGGSLRLSCAASGFTFTHYAMGWYRQAPGKERELVAAITDTGGGTYYADSVKGRFTISRHNAKNTVYLQMNSLKPQDTAVYYCAKPTSYRGYYSWGQGTQVTVSS	high polyreactivity
QVQLVESGGGLVQAGGSLRLSCAASGRTFTKYAMGWYRQAPGKERELVAGITRRGGNTYYADSVKGRFTISRDNAKNTVYLQMNSLKPEDTAVYYCAKGYDFLRYDYWGQGTQVTVSS	high polyreactivity
QVQLVESGGGLVQAGGSLRLSCAASGSTFWLYAMGWYRQAPGKERELVASISSRGGSTYYADSVKGRFTISRDNAKNTVYLQMNSLKPEDTAVYYCAAKDIRYDDDYWGQGTQVTVSS	low polyreactivity
QVQLVESGGGLVQAGGSLRLSCAASGRIFTRNTMGWYRQAPGKERELVAAITSRGGSTYYADSVKGRFTISRDNAKITVYLQMNSLKPEETAVYYCAADIPRYYYYWGQGTQVTVSS	high polyreactivity
QVQLVESGGGLVQAGGSLRLSCAASGRIFSRYAMGWYTQAPGKERELVAAITQSGTSTYDADSVKGRFTISRDNAKNTVYLQMNSLKPEDTAVYFCNAYRQYRYDYWGQGTQVTVSS	low polyreactivity
QVQLVESGGGLVQAGGSLRLSCAASGSIFGWYAMGWYRQAPGKERELVAAIDSATSTYYADSVKGRFTISRDNAKNTVYLQMNSLKPEDTAFYYCAAVQLYQKHQITYVAHEYWGQGTQVTVSS	low polyreactivity
QVQLVESGGGLVQAGGSLRLSCAASGLTFRAYTMGWYRQAPGKERELVAAISRSGGSTYYADSVKGRFTISRDNAKNTVYLQMNSLKPEDTAVYYCAAPGYQTVGMGYWGQGTQVTVSS	high polyreactivity
QVQLVESGGGLVQAGGSLRLSCAASGSTFAYNAMGCYRQAPGKERELVAAISFTGDSTYYADSVKGRFTISRDNAKYTVYLQMNSLKPEDNRSSPVLSYDYWGQGTQVTVSS	low polyreactivity
QVQLVESGGGLVQAGGSLRLSCAASGSTFTYYAMGWYRQAPGKERELVAAINWDGGRTYYADSVKGRFTISRDNAKNTVYLQMNSLKPEDTAVYYCNAVGRYRSGFDYWGQGTQVTVSS	high polyreactivity
QVQLVESGGGLVQARGSLRLSCAASGRTFAIYAMGWYRPAPGKEREFVAAISWSGGDTYYADSVKGRFTISRDNAKNTVYLQMNSLKPEDTAVYYCAARDNDYEGRDLQYELDYWGQGSQVTVSS	low polyreactivity
QVQLVESGGGLVQAGGSLRLSCADSGRTFGSNAMGWYRQAPGKERELVAAISSTVSTNYADSVKGRFTISRDNAKNTVYLQMNSLKPEDTAVYYCNVTRHYSYVSEYDYWGQGTQVTVSS	low polyreactivity
QVQLVESGGGLVQAGGSLRLSCAASGRNFKYYAMGWYRPAPGKERELVAAISWSGGSTYYADSVKGRFTISRDNAKNTVYLQMNSLKPEDTAVYYCATYGGLTKFRLAYDYWGQGTQVTVSS	high polyreactivity
QVQLVESGGGLVQAGGSLRLSCAASGRTIYRNAMGWYRQAPGKERELVAAISRSGGRTFYAYSVKGRFTISRDNAKNTVYLQMNSLKPEDTEVYYCADESYGVRLPSGYWGQGTQVTVSS	high polyreactivity
QVQLVESGGGLVQAGGSLRLSCAASGIIFDGYTMGWYRQAPGTERELVAAITTSGTSTYYADSVKGRFTISRDNAKNTVYLQMNSLKPEDTAVYYCNAVRRGLPVVGAYDYWGQGTQVTVSS	high polyreactivity
QVQLVESGGGLVQAGGSLRLSCAASGRTFKYYAMGWYRQAPGKERELVAAISSGSSTYYADSVKGRFTISRDNAKNTVYLQMNSLKPEDTAVYYCNAVYKLSYLLSGTSEYYTYDYWGQGTQVTVSS	high polyreactivity
QVHLVESRGRLVQAGGSLRLSCAASGSIFEPNAMGWYRQAPGKEREFVAAISGSGGSTYYADSVKARFTISRDNAKNTVYLQMNSRNPEDTAVYYCATRGKRSYFRTFYYWGQATQVTVSS	high polyreactivity
